According to article PMC11214633:

How the values were obtained:
[1] = target: prefusion-stabilized PRD-0038 S2 subunit trimer (PRD-0038 sarbecovirus); assay: negative-stain EM
[2] = target: prefusion-stabilized SARS-CoV-1 S2 subunit trimer (SARS-CoV-1); assay: negative-stain EM

For “prefusion-stabilized PRD-0038 S2 subunit trimer (domain or fragment)”, the stoichiometry N [1] was 3.
“prefusion-stabilized SARS-CoV-1 S2 subunit trimer (domain or fragment)” gave a stoichiometry N [2] of 3.
